From paper PMC8478157 (Nature, 2021)

Target: the molecule itself
Experiment: native gel or EMSA

B1: recombinant eGFP–GBPL3 (natural protein, Arabidopsis thaliana, UniProt F4KG14 1-1082, looked up)
chain: MRSFFGRGGKDSPADSASPSPRSYPSTSPASSSAVTGPPRPIRLVYCDEKGKFRMDPEAVATLQLVKEPIGVVSVCGRARQGKSFILNQLLGRSNGFQVASTHKPCTKGLWLWSSPIKRTALDGTEYNLLLLDSEGIDAYDQTGTYSTQIFSLAVLLSSMFVYNQMGGIDEASLDRLSLVTQMTKHIRVKASGGTSSRSELGQFSPIFVWLLRDFYLDLVEDNRKISPRDYLEIALRPVQGSGGDIGAKNEIRDSIRALFPDRECFTLVRPLNNEKDLQRLDQISLEKLRPEFGAGLDAFTKFVFEKTRPKQLGGTVMTGPILVGITQSYLDALNNGAVPTITSSWQSVEETECRRAYDSGVEAYMAAFDQSKAPEEGALREEHEEAVRKALAIFNSNAVGNGSARKKFEDLLHKDLKKKFEDYKKNAFMEADLRCTSTIQRMEKQLRAACHASNANMDNVVKVLEARLAEYEASCHGPGKWQKLSVFLQQSLEGPIYDLTKRLIDSIAIEKNSLAMKFRSVEDAMKHLKQQLDDSERYKLEYQKRYDESNNDKKKLEDIYRERITKLQGENSSLNERCSTLVKTVESKKEEIKEWIRNYDQIVLKQKAVQEQLSSEMEVLRTRSTTSEARVAAAREQAKSAAEETKEWKRKYDYAVGEARSALQKAASVQERSGKETQLREDALREEFSITLANKDEEITEKATKLEKAEQSLTVLRSDLKVAESKLESFEVELASLRLTLSEMTDKLDSANKKALAYEKEANKLEQEKIRMEQKYRSEFQRFDEVKERCKAAEIEAKRATELADKARTDAVTSQKEKSESQRLAMERLAQIERAERQVENLERQKTDLEDELDRLRVSEMEAVSKVTILEARVEEREKEIGSLIKETNAQRAHNVKSLEKLLDEERKAHIAANRRAEALSLELQAAQAHVDNLQQELAQARLKETALDNKIRAASSSHGKRSRFEDVVDMDIGEGSDRILRTNKRARSTRGDDHGPTDEGDEDFQSHQDNGEEEEEEDYRKLTVQNLKHELTKYDCGHLLLNRGHQNKKEILALYEAHVLPKKALAREEERKKQREVTSS
B1: binds.
